What all share (assay): cell-based or functional assay
The target of one assay is T1, MMP1 (human, UniProt P03956 100-469, limits assumed).
T1 sequence (looked up): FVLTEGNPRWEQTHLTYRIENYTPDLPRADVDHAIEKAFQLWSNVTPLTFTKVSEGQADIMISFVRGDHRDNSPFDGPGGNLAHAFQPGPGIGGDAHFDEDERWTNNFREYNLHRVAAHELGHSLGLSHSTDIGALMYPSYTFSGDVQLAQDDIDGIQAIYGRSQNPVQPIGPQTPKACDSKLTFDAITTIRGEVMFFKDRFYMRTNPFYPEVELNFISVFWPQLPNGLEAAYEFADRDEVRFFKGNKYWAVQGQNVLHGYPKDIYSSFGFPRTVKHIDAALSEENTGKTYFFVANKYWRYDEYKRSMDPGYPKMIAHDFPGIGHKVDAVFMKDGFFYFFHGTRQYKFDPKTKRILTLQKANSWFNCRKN

For a further assay, the target named is Elastase.
In another assay the target is T2, Cathepsin G (UniProt P08311 21-244).
T2 sequence (looked up): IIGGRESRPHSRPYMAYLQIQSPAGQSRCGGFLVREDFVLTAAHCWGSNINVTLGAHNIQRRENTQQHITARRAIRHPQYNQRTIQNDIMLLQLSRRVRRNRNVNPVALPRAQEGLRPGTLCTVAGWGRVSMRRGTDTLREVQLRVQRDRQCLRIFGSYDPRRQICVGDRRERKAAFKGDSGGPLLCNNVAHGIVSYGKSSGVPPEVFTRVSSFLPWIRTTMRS

Here are results for one molecule from US20230250154A1 (CYTONICS, published 2023).

B1: Variant A2M, bait region SEQ ID NO 138 (other)
chain: SVSGKPQYMVLVPSLLHTETTEKGCVLLSYLNETVTVSASLESVRGNRSLFTDLEAENDVLHCVAFAVPKSSSNEEVMFLTVQVKGPTQEFKKRTTVMVKNEDSLVFVQTDKSIYKPGQTVKFRVVSMDENFHPLNELIPLVYIQDPKGNRIAQWQSFQLEGGLKQFSFPLSSEPFQGSYKVVVQKKSGGRTEHPFTVEEFVLPKFEVQVTVPKIITILEEEMNVSVCGLYTYGKPVPGHVTVSICRKYSDASDCHGEDSQAFCEKFSGQLNSHGCFYQQVKTKVFQLKRKEYEMKLHTEAQIQEEGTVVELTGRQSSEITRTITKLSFVKVDSHFRQGIPFFGQVRLVDGKGVPIPNKVIFIRGNEANYYSNATTDEHGLVQFSINTTNVMGTSLTVRVNYKDRSPCYGYQWVSEEHEEAHHTAYLVFSPSKSFVHLEPMSHELPCGHTQTVQAHYILNGGTLLGLKKLSFYYLIMAKGGIVRTGTHGLLVKQEDMKGHFSISIPVKSDIAPVARLLIYAVLPTGDVIGDSAKYDVENCLANKVDLSFSPSQSLPASHAHLRVTAAPQSVCALRAVDQSVLLMKPDAELSASSVYNLLPEKDLTGFPGPLNDQDDEDCINRHNVYINGITYTPVSSTNEKDMYSFLEDMGLKAFTNSKIRKPKMCPQLEQYEMHGPSEDLVVQIEGEGEGEGIPENFFGVKEEEGLGSVEEPHTKLRKYFPETWIWDLVVVNSAGVAEVGVTVPDTITEWKAGAFCLSEDAGLGISSTASLRAFQPFFVELTMPYSVIRGEAFTLKATVLNYLPKCIRVSVQLEASPAFLAVPVEKEQAPHCICANGRQTVSWAVTPKSLGNVNFTVSAEALESQELCGTEVPSVPEHGRKDTVIKPLLVEPEGLEKETTFNSLLCPSGGEVSEELSLKLPPNVVEESARASVSVLGDILGSAMQNTQNLLQMPYGCGEQNMVLFAPNIYVLDYLNETQQLTPEIKSKAIGYLNTGYQRQLNYKHYDGSYSTFGERYGRNQGNTWLTAFVLKTFAQARAYIFIDEAHITQALIWLSQRQKDNGCFRSSGSLLNNAIKGGVEDEVTLSAYITIALLEIPLTVTHPVVRNALFCLESAWKTAQEGDHGSHVYTKALLAYAFALAGNQDKRKEVLKSLNEEAVKKDNSVHWERPQKPKAPVGHFYEPQAPSAEVEMTSYVLLAYLTAQPAPTSEDLTSATNIVKWITKQQNAQGGFSSTQDTVVALHALSKYGAATFTRTGKAAQVTIQSSGTFSSKFQVDNNNRLLLQQVSLPELPGEYSMKVTGEGCVYLQTSLKYNILPEKEEFPFALGVQTLPQTCDEPKAHTSFQISLSVSYTGSRSASNMAIVDVKMVSGFIPLKPTVKMLERSNHVSRTEVSSNHVLIYLDKVSNQTLSLFFTVLQDVPVRDLKPAIVKVYDYYETDEFAIAEYNAPCSKDLGNADYKDDDDKGASHHHHHH
With B1, the “Protease Inhibition (% of WT)” value is 200 % of WT with MMP1, 250 % of WT with Elastase and 100 % of WT with Cathepsin G.
